Article PMC3661714 (Circulation, 2013)
Starred links: 1 amine or outer side, 2 acyl side, 3 side chain; linkers in the order of their positions; H or OH if unused. Residues, ends and D or L forms follow the SMILES beside them. Groups on a side chain read outwards from the residue. *: point of attachment. X1 = FCCOC1CCCC2C(=CNN=C2c2ccc(CN*)cc2)CC1; Glutaryl = O=C(CCCC(=O)[*:2])[*:1]

Columns and labels:
[1] = B6 mice, injected i.v., n = 5, R^2 = 0.95, mean±SEM
in vivo = settings: B6, mouse, iv, SEM
[2] = target: T1, plasma transglutaminase factor XIII (FXIII) (Mus musculus, UniProt Q8BH61); test: Scintillation counting of 18F-FXIII signal in hearts with or without MI; type: in vivo; settings: p<0.05
T1 sequence (Q8BH61 1-732): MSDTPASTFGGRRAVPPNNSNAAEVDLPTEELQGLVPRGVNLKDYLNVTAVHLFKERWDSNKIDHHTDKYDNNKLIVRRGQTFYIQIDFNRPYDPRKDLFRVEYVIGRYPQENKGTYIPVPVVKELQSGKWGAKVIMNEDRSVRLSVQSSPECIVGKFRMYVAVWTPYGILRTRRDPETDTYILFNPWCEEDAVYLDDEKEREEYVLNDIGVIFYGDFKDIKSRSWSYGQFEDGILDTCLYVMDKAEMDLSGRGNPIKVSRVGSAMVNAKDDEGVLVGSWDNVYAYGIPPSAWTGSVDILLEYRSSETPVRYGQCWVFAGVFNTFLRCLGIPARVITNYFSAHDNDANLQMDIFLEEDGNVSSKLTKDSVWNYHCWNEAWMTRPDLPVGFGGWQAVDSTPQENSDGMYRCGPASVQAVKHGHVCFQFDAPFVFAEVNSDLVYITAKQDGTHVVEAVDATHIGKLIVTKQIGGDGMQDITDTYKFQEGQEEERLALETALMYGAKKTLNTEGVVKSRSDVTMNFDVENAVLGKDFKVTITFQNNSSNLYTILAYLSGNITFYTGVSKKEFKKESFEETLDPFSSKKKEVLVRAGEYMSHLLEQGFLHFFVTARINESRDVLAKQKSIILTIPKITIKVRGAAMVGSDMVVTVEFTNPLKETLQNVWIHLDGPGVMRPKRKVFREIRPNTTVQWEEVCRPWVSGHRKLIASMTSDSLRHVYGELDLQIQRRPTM

## CC(=O)NCC(=O)N[C@@H](CC(N)=O)C(=O)N[C@@H](CCC(N)=O)C(=O)N[C@@H](CCC(=O)O)C(=O)N[C@@H](CCC(N)=O)C(=O)N[C@H](C(=O)N[C@@H](CO)C(=O)N1CCC[C@H]1C(=O)N[C@@H](CC(C)C)C(=O)N[C@H](C(=O)N[C@@H](CC(C)C)C(=O)N[C@@H](CC(C)C)C(=O)N[C@@H](CCCCNC(=O)CCCC(=O)NCc1ccc(C2=NNC=C3CCC(OCCF)CCCC32)cc1)C(=O)N[C@@H](Cc1c[nH]c2ccccc12)C(=O)O)[C@@H](C)O)C(C)C (stereo partly drawn) [18F-FXIII] (Ac-GNQEQVSPLTLLK([Glutaryl-X1])W-OH; N-terminus and C-terminus assumed)
[1]
  blood half-life: 13.2 ± 0.94 min
In vivo; blood
  tissue uptake at 1.25 h: 0.49 ± 0.03 %ID/g
In vivo; bone
  tissue uptake at 1.25 h: 0.31 ± 0.03 %ID/g
In vivo; fat
  tissue uptake at 1.25 h: 0.17 ± 0.01 %ID/g
In vivo; heart
  tissue uptake at 1.25 h: 0.23 ± 0.03 %ID/g
In vivo; intestines
  tissue uptake at 1.25 h: 0.25 ± 0.04 %ID/g
In vivo; kidney
  tissue uptake at 1.25 h: 1.26 ± 0.06 %ID/g
In vivo; liver
  tissue uptake at 1.25 h: 2.83 ± 0.22 %ID/g
In vivo; lymph node
  tissue uptake at 1.25 h: 0.6 ± 0.1 %ID/g
In vivo; muscle
  tissue uptake at 1.25 h: 0.15 ± 0.01 %ID/g
In vivo; skin
  tissue uptake at 1.25 h: 0.31 ± 0.05 %ID/g
In vivo; spleen
  tissue uptake at 1.25 h: 0.49 ± 0.05 %ID/g
In vivo; tail
  tissue uptake at 1.25 h: 0.41 ± 0.03 %ID/g
[2]; day 4 after MI, comparable to non-infarcted wild-type B6 and FXIII−/− mice
  Signal intensity in hearts of FXIII−/− mice with MI (specificity): significantly lower
[2]; day 4 after coronary ligation, n = 4-5 per group
  18F-FXIII signal in the heart, B6 mice with MI compared to control mice: significantly higher
